# Measurements published in patent publication US9089565B2, “Compositions and methods for causing neurite outgrowth” (MEDICAL RESEARCH COUNCIL, priority 2009, dated 2015).
# B1: BDNF: brain-derived neurotrophic factor, member of the neurotrophin nerve growth factor family, purchased from Merck (protein, UniProt P23560 19-247, looked up)
# Neurotrophic factor BDNF …: APMKEANIRGQGGLAYPGVRTHGTLESVNGPKAGSRGLTSLADTFEHVIEELLDEDQKVRPNEENNKDADLYTSRVMLSSQVPLEPPLLFLLEEYKNYLDAANMSMRVRRHSDPARRGELSVCDSISEWVTAADKKTAVDMSGGTVTVLEKVPVSKGQLKQYFYETKCNPMGYTKEGCRGIDKRHWNSQCRTTQSYVRALTMDSKKRIGWRFIRIDTSCVCTLTIKRGR
# System: NgR1
# Experiment: Phosphorylation of endogenous NgR1 (upper band, immunoblotting) in RA-treated SH-SY5Y cells
# Format: cell-based, human
# Settings: BDNF treatment 24 hours
# Description: FIG. 1. BDNF promotes neurite outgrowth of RA-treated SH-SY5Y, and induces phosphorylation of NgR1. (A) SH-SY5Y cells were incubated with indicated reagents. Cell images were taken with phase contrast microscopy. (B) Number of cells extending neurite-like structures of more than 40 μm and total cell number were counted from images taken in (A). More than 300 cells were examined in each sample. The proportion of cells extending neurite-like structures of more than 40 μm was indicated as a percentage of total cell number. An average of three experiments is shown. Error bars indicate S. E. between experiments. Data were analysed with student's t test. (C) Whole cell extracts were prepared from RA-treated SH-SY5Y cells after incubation with or without BDNF for 24 hours, and were analysed by SDS-PAGE. Immunoblotting was performed with the indicated antibodies. (D) Whole cell extract prepared from cells treated with both RA and BDNF was incubated with the indicated reagents for 1 hour at 37° C. Immunoblotting was performed with anti-NgR1 antibody. (E) RA-treated SH-SY5Y cells were incubated with BDNF in the presence or absence of one of the following: PKC inhibitor—500 nM Gö6983 or Gö6976; PKA inhibitor—2 μM KT5720 or a PKA inhibitor peptide 14-22; or either 500 nM or 1 μM of a casein kinase inhibitor, for 24 hours. Whole cell extracts prepared from these cells were analysed by SDS-PAGE. Immunoblotting was performed with anti-NgR1 antibody.
# SH-SY5Y cells were cultured in Ham's F12 medium with 10% foetal bovine serum at 37° C. in 5% CO2 and 95% air. Passage numbers between 15 and 21 were used in experiments described in this paper. Further passages induce spontaneous differentiation and cells tend to extend neurites without BDNF (data not shown). For RA treatment, the cells are seeded (20,000 cells/well) on collagen IV coated 4 well chamber slides. After 24 hours culture, medium was changed to Ham's F12 medium containing 10 μM RA and 10% foetal bovine serum. Medium was changed to fresh medium on day 3 and cells were used for experiments after 5 days culture. Encinas et al. (18) reported that RA-treated SH-SY5Y cells initiate apoptosis after withdrawal of serum only when the cells are cultured at low density. The cell density used in this paper was higher than that in the paper by Encinas et al. (18) and cell death due to depletion of serum or BDNF was not significant. In this paper, the SH-SY5Y cells treated with RA for 5 days are called RA-treated SH-SY5Y. For BDNF treatment, the RA-treated SH-SY5Y cells were washed with serum-free Ham's F12 medium and incubated with 25 ng/ml BDNF in serum-free Ham's F12 medium for 24 hours. As a control (RA alone), the RA-treated SH-SY5Y cells were incubated with serum-free Ham's F12 alone for 24 hours.
# Cells were scraped off from dishes and washed with PBS twice, and then resuspended in PBS containing 0.1% Triton X100 and phosphatase inhibitor cocktail (Roche) and EDTA-free protease inhibitor cocktail (Roche). After incubation for 15 min on ice, samples were centrifuged at 14,000×g for 20 min at 4° C. The supernatants containing 30 μg of proteins were analysed by SDS-PAGE and blotted to PVDF membrane. The PVDF membrane was incubated in blocking buffer (5% skimmed milk, 0.4% Triton X-100 in PBS) for 1 hour, first antibody diluted in the blocking buffer and appropriate secondary antibody labelled with horse radish peroxidase. Bound antibodies were visualised with ECL or ECL Plus kit (GE healthcare).
molecule,measurement,value
B1,upper band of NgR1 (phosphorylated NgR1),increased
